Values quoted from earlier work in patent US20120122716A1, “CELL LINE DERIVED FROM THE EPITHELIAL LINING OF THE HUMAN ENDOLYMPHATIC SAC IN THE INNER EAR” (priority 2010, published 2012).

Tested on: beta defensin 2
Details: HMEEC-1 cells; via Src-dependent Raf-MEK1/2-ERK signaling pathway

B1: IL-1α: interleukin 1 alpha, cytokine (protein, UniProt P01583 113-271, looked up)
Interleukin-1 alpha: SAPFSFLSNVKYNFMRIIKYEFILNDALNQSIIRANDQYLTAAALHNLDEAVKFDMGAYKSSKDDAKITVILRISKTQLYVTAQDEDQPVLLKEMPEIPKTITGSETNLLFFWETHGTKNYFTSVAHPNLFIATKQDYWVCLAGGPPSITDFQILENQA
For B1, the “beta defensin 2 expression” value is given as “up-regulate”.
